Biological target: rAAV9 vector (AAV9 capsid: full, intermediate and empty capsids) comprising a mini-dystrophin transgene (adeno-associated virus serotype 9 (AAV9))
Test: affinity chromatography lifecycle study, unbound vg in flow through, resin challenge 7.5x10^13 vg/mL resin

“POROS CaptureSelect AAV9 affinity resin ligand (VHH)” was tested, and the % unbound vg was less than 2%.
